Measured values: paper PMC12207370, “Macrocyclic Peptide Probes for Immunomodulatory Protein CD59: Potent Modulators of Bacterial Toxin Activity and Antibody‐Dependent Cytotoxicity” (Angewandte Chemie (International Ed. in English), 2025)

Molecular target: T1, biotinylated CD59 (Homo sapiens, UniProt P13987)
T1 construct: Recombinant soluble human CD59 with an additional C-terminal cysteine residue
T1 sequence (P13987 26-102 limits assumed): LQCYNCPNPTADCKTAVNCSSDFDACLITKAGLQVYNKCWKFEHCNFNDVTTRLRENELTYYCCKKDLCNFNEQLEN
Assay: mRNA-display cyclic peptide screen against CD59-biotin, NGS abundance after 6th selection round
Conditions: for Counts (raw counts for peptide sequence), Seq I: NGS sample Seq I; for Counts (raw counts for peptide sequence), Seq I / Counts (raw counts for peptide sequence), Seq II / Counts Seq I / Counts Seq II: sheet R6 (6th selection round); for Counts (raw counts for peptide sequence), Seq II: NGS sample Seq II; for Percentage of the pool, averaged across the two sequencing samples: average of Seq I and Seq II; for Percentage of the pool, averaged across the two sequencing samples / Percentage of the pool, Seq I / Percentage of the pool, Seq II / Percentage Seq I / Percentage Seq II / Percentage Average: sheet R6; for Percentage of the pool, Seq I: counts normalised by total counts of NGS sample Seq I; for Percentage of the pool, Seq II: counts normalised by total counts of NGS sample Seq II; for Percentage Seq I: counts normalised by total counts of sample Seq I; for Percentage Seq I / Percentage Seq II: percentage of the pool; for Percentage Seq II: counts normalised by total counts of sample Seq II; for Percentage Average: percentage of the pool averaged across the two sequencing samples; for Counts Seq I / Counts Seq II: raw NGS counts of peptide sequence; for Counts Seq I: sequencing sample Seq I; for Counts Seq II: sequencing sample Seq II
In short: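 Peptide–mRNA fusions were made by in vitro translation with a customised PURE express kit. The kit lacked release factor 1 and methionine and was supplemented with […] initiator tRNA carrying N-chloroacetyl-d-tyrosine. Thioether macrocycles were formed, then enriched and amplified over iterative rounds on CD59-biotin immobilised on streptavidin beads. NGS read counts per sequence were recorded after the 6th selection round.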

## RCWASGSRDWR
  Counts (raw counts for peptide sequence), Seq I: 95
  Counts (raw counts for peptide sequence), Seq II: 6
  Percentage of the pool, averaged across the two sequencing samples: 0.018%
  Percentage of the pool, Seq I: 0.022%
  Percentage of the pool, Seq II: 0.014%

## RCWVRGSRNYT
  Counts (raw counts for peptide sequence), Seq I: 45
  Counts (raw counts for peptide sequence), Seq II: 4
  Percentage of the pool, averaged across the two sequencing samples: 0.010%
  Percentage of the pool, Seq I: 0.010%
  Percentage of the pool, Seq II: 0.009%

## RGGTRDTIWG
  Percentage Seq I: 0.078%
  Percentage Seq II: 0.063%
  Percentage Average: 0.070%
  Counts Seq I: 340
  Counts Seq II: 27

## RIGTSTCPFKFS
  Percentage Seq I: 0.024%
  Percentage Seq II: 0.023%
  Percentage Average: 0.024%
  Counts Seq I: 106
  Counts Seq II: 10

## RRDRFDQCVL
  Counts (raw counts for peptide sequence), Seq I: 33
  Counts (raw counts for peptide sequence), Seq II: 5
  Percentage of the pool, averaged across the two sequencing samples: 0.010%
  Percentage of the pool, Seq I: 0.00754%
  Percentage of the pool, Seq II: 0.012%

## RTCHLRHDGPHA
  Counts (raw counts for peptide sequence), Seq I: 59
  Counts (raw counts for peptide sequence), Seq II: 6
  Percentage of the pool, averaged across the two sequencing samples: 0.014%
  Percentage of the pool, Seq I: 0.013%
  Percentage of the pool, Seq II: 0.014%

## RVGSQFCAQL
  Counts (raw counts for peptide sequence), Seq I: 33
  Counts (raw counts for peptide sequence), Seq II: 9
  Percentage of the pool, averaged across the two sequencing samples: 0.014%
  Percentage of the pool, Seq I: 0.00754%
  Percentage of the pool, Seq II: 0.021%

## RYGGRTFIYAWS
  Percentage Seq I: 0.025%
  Percentage Seq II: 0.026%
  Percentage Average: 0.025%
  Counts Seq I: 111
  Counts Seq II: 11

## SACGNRQIQYY
  Counts (raw counts for peptide sequence), Seq I: 51
  Counts (raw counts for peptide sequence), Seq II: 6
  Percentage of the pool, averaged across the two sequencing samples: 0.013%
  Percentage of the pool, Seq I: 0.012%
  Percentage of the pool, Seq II: 0.014%

## SARGNRQIQYY
  Percentage Seq I: 0.026%
  Percentage Seq II: 0.028%
  Percentage Average: 0.027%
  Counts Seq I: 114
  Counts Seq II: 12

## SAWGDRQIQYY
  Counts (raw counts for peptide sequence), Seq I: 64
  Counts (raw counts for peptide sequence), Seq II: 6
  Percentage of the pool, averaged across the two sequencing samples: 0.014%
  Percentage of the pool, Seq I: 0.015%
  Percentage of the pool, Seq II: 0.014%

## SAWGNQQIQYY
  Percentage Seq I: 0.028%
  Percentage Seq II: 0.026%
  Percentage Average: 0.027%
  Counts Seq I: 124
  Counts Seq II: 11

## SAWGNRKIQYY
  Counts (raw counts for peptide sequence), Seq I: 55
  Counts (raw counts for peptide sequence), Seq II: 5
  Percentage of the pool, averaged across the two sequencing samples: 0.012%
  Percentage of the pool, Seq I: 0.013%
  Percentage of the pool, Seq II: 0.012%

## SAWGNRLIQYY
  Counts (raw counts for peptide sequence), Seq I: 80
  Counts (raw counts for peptide sequence), Seq II: 5
  Percentage of the pool, averaged across the two sequencing samples: 0.015%
  Percentage of the pool, Seq I: 0.018%
  Percentage of the pool, Seq II: 0.012%

## SAWGNRQIKYY
  Counts (raw counts for peptide sequence), Seq I: 65
  Counts (raw counts for peptide sequence), Seq II: 6
  Percentage of the pool, averaged across the two sequencing samples: 0.014%
  Percentage of the pool, Seq I: 0.015%
  Percentage of the pool, Seq II: 0.014%

## SAWGNRQIQCY
  Counts (raw counts for peptide sequence), Seq I: 55
  Counts (raw counts for peptide sequence), Seq II: 5
  Percentage of the pool, averaged across the two sequencing samples: 0.012%
  Percentage of the pool, Seq I: 0.013%
  Percentage of the pool, Seq II: 0.012%

## SAWGNRQIQHY
  Counts (raw counts for peptide sequence), Seq I: 74
  Counts (raw counts for peptide sequence), Seq II: 3
  Percentage of the pool, averaged across the two sequencing samples: 0.012%
  Percentage of the pool, Seq I: 0.017%
  Percentage of the pool, Seq II: 0.007%

## SAWGNRQIQY+
  Percentage Seq I: 0.026%
  Percentage Seq II: 0.016%
  Percentage Average: 0.021%
  Counts Seq I: 114
  Counts Seq II: 7

## SAWGNRQIQYC
  Percentage Seq I: 0.039%
  Percentage Seq II: 0.028%
  Percentage Average: 0.033%
  Counts Seq I: 170
  Counts Seq II: 12

## SAWGNRQIQYF
  Percentage Seq I: 0.023%
  Percentage Seq II: 0.030%
  Percentage Average: 0.027%
  Counts Seq I: 102
  Counts Seq II: 13

## SAWGNRQIQYH
  Counts (raw counts for peptide sequence), Seq I: 65
  Counts (raw counts for peptide sequence), Seq II: 7
  Percentage of the pool, averaged across the two sequencing samples: 0.016%
  Percentage of the pool, Seq I: 0.015%
  Percentage of the pool, Seq II: 0.016%

## SAWGNRQIQYY
  Percentage Seq I: 7.073%
  Percentage Seq II: 7.046%
  Percentage Average: 7.059%
  Counts Seq I: 30945
  Counts Seq II: 3036

## SAWGNRQTQYY
  Percentage Seq I: 1.151%
  Percentage Seq II: 1.160%
  Percentage Average: 1.156%
  Counts Seq I: 5037
  Counts Seq II: 500

## SAWGNRQVQYY
  Percentage Seq I: 0.110%
  Percentage Seq II: 0.116%
  Percentage Average: 0.113%
  Counts Seq I: 483
  Counts Seq II: 50

## SAWGNRRIQYY
  Percentage Seq I: 0.034%
  Percentage Seq II: 0.037%
  Percentage Average: 0.035%
  Counts Seq I: 148
  Counts Seq II: 16

## SAWGNRYIAYY
  Counts (raw counts for peptide sequence), Seq I: 47
  Counts (raw counts for peptide sequence), Seq II: 6
  Percentage of the pool, averaged across the two sequencing samples: 0.012%
  Percentage of the pool, Seq I: 0.011%
  Percentage of the pool, Seq II: 0.014%

## SAWGNWQIQYY
  Percentage Seq I: 0.023%
  Percentage Seq II: 0.030%
  Percentage Average: 0.027%
  Counts Seq I: 102
  Counts Seq II: 13

## SAWGSRQIQYY
  Percentage Seq I: 0.059%
  Percentage Seq II: 0.051%
  Percentage Average: 0.055%
  Counts Seq I: 257
  Counts Seq II: 22

## SAYGSRDFAWA
  Percentage Seq I: 0.024%
  Percentage Seq II: 0.023%
  Percentage Average: 0.024%
  Counts Seq I: 106
  Counts Seq II: 10

## SCSEWRRGTRS
  Counts (raw counts for peptide sequence), Seq I: 43
  Counts (raw counts for peptide sequence), Seq II: 4
  Percentage of the pool, averaged across the two sequencing samples: 0.010%
  Percentage of the pool, Seq I: 0.010%
  Percentage of the pool, Seq II: 0.009%

## SFAKRVAAQGGC
  Percentage Seq I: 0.030%
  Percentage Seq II: 0.021%
  Percentage Average: 0.026%
  Counts Seq I: 133
  Counts Seq II: 9

## SIRGGRDYTRG
  Percentage Seq I: 0.110%
  Percentage Seq II: 0.128%
  Percentage Average: 0.119%
  Counts Seq I: 482
  Counts Seq II: 55

## SISGGRDYTRG
  Percentage Seq I: 0.032%
  Percentage Seq II: 0.026%
  Percentage Average: 0.029%
  Counts Seq I: 141
  Counts Seq II: 11

## SKNGLTFLCN
  Percentage Seq I: 0.181%
  Percentage Seq II: 0.211%
  Percentage Average: 0.196%
  Counts Seq I: 794
  Counts Seq II: 91

## SKNGLTFLCS
  Percentage Seq I: 0.016%
  Percentage Seq II: 0.032%
  Percentage Average: 0.024%
  Counts Seq I: 70
  Counts Seq II: 14
